Source: PMC13317680, “Molecular architecture of the human citrate synthase–malate dehydrogenase 2 metabolon” (Acta Crystallographica Section D: Structural Biology, 2026)

B1: Human citrate synthase (enzyme, UniProt O75390 28-466, looked up)
chain: ASSTNLKDILADLIPKEQARIKTFRQQHGKTVVGQITVDMMYGGMRGMKGLVYETSVLDPDEGIRFRGFSIPECQKLLPKAKGGEEPLPEGLFWLLVTGHIPTEEQVSWLSKEWAKRAALPSHVVTMLDNFPTNLHPMSQLSAAVTALNSESNFARAYAQGISRTKYWELIYEDSMDLIAKLPCVAAKIYRNLYREGSGIGAIDSNLDWSHNFTNMLGYTDHQFTELTRLYLTIHSDHEGGNVSAHTSHLVGSALSDPYLSFAAAMNGLAGPLHGLANQEVLVWLTQLQKEVGKDVSDEKLRDYIWNTLNSGRVVPGYGHAVLRKTDPRYTCQREFALKHLPNDPMFKLVAQLYKIVPNVLLEQGKAKNPWPNVDAHSGVLLQYYGMTEMNYYTVLFGVSRALGVLAQLIWSRALGFPLERPKSMSTEGLMKFVDSKSG
notes: Human citrate synthase, mitochondrial, UniProt O75390, amino acids 28-466; Dimer in solution by SAXS; PDB 5uzr was the starting model for the SAXS fit; also called hCS; CS; source: E. coli, purified (HisTrap nickel column, Sephacryl S200 SEC)

Experiments:
[1] = target: Human citrate synthase (human) (UniProt O75390); test: SEC-SAXS; glutaraldehyde cross-linked hMDH2-hCS; Shodex KW-803, 50 mM sodium phosphate pH 7, 100 mM NaCl, 2 mM DTT, 2% glycerol, 10°C; LightDock models fitted with FoXS
[2] = target: Human citrate synthase (human) (UniProt O75390)
[3] = target: the molecule itself; test: SAXS (SEC-SAXS and HT-SAXS); hCS alone, 0.07-2.0 mg/ml in 50 mM Tris-HCl, 100 mM NaCl, 0.1 mM EDTA pH 7.5, 10°C; data compared with crystal structures and a normal-mode model (FoXS)

Row | Molecule | stoichiometry N (hMDH2 (dimer) per hCS (dimer)) [1] | NADH production (A340), hMDH2 titrated into 2.5 µM hCS at hMDH2:hCS molar ratios 0:1 to 3:1; no saturation (hMDH2 dimer per hCS dimer) [2] | stoichiometry N [3]
1 | Human mitochondrial malate dehydrogenase 2 (from UniProt P40926-1 25-338) (enzyme) | 2 | > 1 | –
2 | B1 | – | – | 2
